Assay results published in patent publication US20240301023A1.

Experiments:
[1] = target: Kappa opioid receptor (KOR) (Homo sapiens (Human)) (UniProt P41145); assay: cell-based or functional assay
[2] = target: Delta opioid receptor (DOR); assay: cell-based or functional assay
Mu opioid receptor (MOR) = assay: cell-based or functional assay
[3] = target: Kappa opioid receptor (KOR) (Homo sapiens (Human)) (UniProt P41145); assay: HTRF Tag-Lite KOP ligand binding assay; competition against naltrindole (8 nM); Ki relative to Kd of naltrindole
[4] = target: Kappa opioid receptor (KOR) (Homo sapiens (Human)) (UniProt P41145); assay: HTRF Tag-Lite KOP ligand binding assay; competition against naltrindole (8 nM)

Row | Activity (EC50, nM), cAMP assay [1] | cAMP assay (ALPHAScreen), result at 1 µM peptide [1] | cAMP assay (ALPHAScreen), result at 10 µM peptide [1] | Ki [3] | IC50 [4] | Log IC50 [4] | Substance | KOPr desensitisation in HEK293-KOPr cells: reduction in maximal cAMP response after 6 h pretreatment at 1 µM [1] | Activity (EC50, nM), cAMP assay [2] | Activity (EC50, nM), cAMP assay (Mu opioid receptor (MOR))
1 | 1.77 nM | – | – | – | – | – | SEQ ID NO. 18: NH2-Tyr-Sar-(4-NO2)Phe-Leu-Arg-NMA-NH2 (peptide) | – | – | –
2 | – | – | – | – | – | – | SEQ ID NO. 20: NH2-Tyr-Sar-(4-Cl)Phe-Leu-Arg-DArg-Ile-Arg-NH2 (peptide) | 50% | – | –
3 | 8.4 nM | 34.9 | 40.3 | 2.8 nM | 30.2 nM | -7.52 | SEQ ID NO. 4: NH2-Tyr-Sar-(4-NO2)Phe-Leu-Arg-DArg-NH2 (peptide) | – | – | –
4 | 31.1 nM | – | – | 180 nM | 1950 nM | -5.71 | SEQ ID NO. 19: NH2-Tyr-Sar-(4-NO2)Phe-Leu-NMA-NMA-NH2 (peptide) | – | – | –
5 | 3.87 nM | – | – | 6.7 nM | 72.6 nM | -7.14 | SEQ ID NO. 24: NH2-Tyr-Sar-(4-Cl)Phe-Leu-Arg-DArg-C7H14-CONH2 (peptide) | – | – | –

Row | Substance | Activity (EC50, nM), cAMP assay [1] | cAMP assay (ALPHAScreen), result at 1 µM peptide [1] | cAMP assay (ALPHAScreen), result at 10 µM peptide [1] | Ki [3] | IC50 [4] | Log IC50 [4] | KOPr desensitisation in HEK293-KOPr cells: reduction in maximal cAMP response after 6 h pretreatment at 1 µM [1] | Activity (EC50, nM), cAMP assay [2] | Activity (EC50, nM), cAMP assay (Mu opioid receptor (MOR))
6 | Dyn1-7 (SEQ ID NO. 38: Tyr-Gly-Gly-Phe-Leu-Arg-Arg) (peptide) | 1600 nM | – | – | – | – | – | – | 870 nM | 3740 nM
